T1: 6xHis-SPT (SPATULA) (Arabidopsis thaliana, UniProt Q9FUA4 1-373)
T1 sequence: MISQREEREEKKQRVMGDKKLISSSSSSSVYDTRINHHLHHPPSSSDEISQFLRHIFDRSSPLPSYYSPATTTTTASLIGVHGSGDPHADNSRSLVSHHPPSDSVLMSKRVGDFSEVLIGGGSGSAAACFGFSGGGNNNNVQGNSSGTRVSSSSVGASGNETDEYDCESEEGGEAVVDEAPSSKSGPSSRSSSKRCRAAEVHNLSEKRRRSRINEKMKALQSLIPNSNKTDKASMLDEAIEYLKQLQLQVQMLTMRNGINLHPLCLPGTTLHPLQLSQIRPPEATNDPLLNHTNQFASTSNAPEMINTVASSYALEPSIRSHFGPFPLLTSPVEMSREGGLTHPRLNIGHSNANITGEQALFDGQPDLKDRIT

T2: IND–RFP (35S::IND–RFP) (Arabidopsis thaliana, UniProt O81313 1-198)
T2 construct: INDEHISCENT (IND), bHLH transcription factor, Arabidopsis thaliana; also called INDEHISCENT; source: N. benthamiana leaves, Agrobacterium-infiltrated, in nuclei of leaf cells
T2 sequence (looked up): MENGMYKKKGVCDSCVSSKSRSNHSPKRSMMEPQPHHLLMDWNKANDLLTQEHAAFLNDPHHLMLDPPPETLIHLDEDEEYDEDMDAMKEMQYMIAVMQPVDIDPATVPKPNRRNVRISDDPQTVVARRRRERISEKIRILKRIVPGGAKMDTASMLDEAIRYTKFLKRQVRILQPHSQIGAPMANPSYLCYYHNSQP

T3: HEC1–RFP (35S::HEC1–RFP) (Arabidopsis thaliana, UniProt Q9FHA7 1-241)
T3 construct: HECATE 1 (HEC1), bHLH transcription factor, Arabidopsis thaliana; the cloning of this construct is not described; the methods describe the FRET–FLIM constructs of SPT and IND only; also called HECATE 1; source: N. benthamiana leaves, Agrobacterium-infiltrated, in nuclei of leaf cells
T3 sequence (looked up): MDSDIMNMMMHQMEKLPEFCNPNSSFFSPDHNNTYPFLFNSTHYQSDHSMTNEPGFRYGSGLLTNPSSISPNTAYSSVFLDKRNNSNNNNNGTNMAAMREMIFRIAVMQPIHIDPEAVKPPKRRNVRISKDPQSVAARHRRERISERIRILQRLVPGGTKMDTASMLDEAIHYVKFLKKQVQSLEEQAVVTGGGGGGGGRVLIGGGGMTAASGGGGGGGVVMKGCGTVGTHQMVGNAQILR


How the values were obtained:
[1] = target: T1, 6xHis-SPT (SPATULA); test: EMSA; legend: binding abolished; text: strongly abolished; EMSA: 150 ng DNA, '1x' buffer as printed 250 mM Tris-HCl pH 8.0, 500 mM NaCl, 25% glycerol, 10 mM DTT; on ice 20 min; 5% native acrylamide gel, 1x TBE, EB stain; conditions: protein: recombinant; tags: 6xHis N-terminal (pRSFDuet); chain copies: 2; label: none (EB stain); blunt
[2] = target: the molecule itself; test: FRET or BRET; FRET–FLIM in nuclei of co-infiltrated N. benthamiana leaves; donor SPT–EGFP, acceptor RFP fusions; efficiency E = 1 − τDA/τD with SPT–EGFP;RFP–NLS as the donor-only reference; with or without co-expressed SEC–3xHA or SPY–3xHA
[3] = target: T2, IND–RFP (35S::IND–RFP); test: as above; conditions: partners not purified
[4] = target: T3, HEC1–RFP (35S::HEC1–RFP); test: as above; conditions: partners not purified

FRET efficiency [3] [%]	FRET efficiency [4] [%]	Binder	binding result [1]	FRET efficiency [2] [%]
		171-bp pPID G-box mutant (CACGTG to TGATGA) (dsDNA) DNA 1: GCACCCCTATAATATGCCTAGAGGAAATAAGAAGAAAAAATAATGGGGAAAAAGAGAAGCTACTGCTACACTTTCAGGTGATGAACAACGTCTCATGATGATCATATATCTTACGTCATCAAGTCCTCTTTTTCTCTCTTTCACTTTTCTGTTTACCTCTCTCACGCGTTG DNA 2: CAACGCGTGAGAGAGGTAAACAGAAAAGTGAAAGAGAGAAAAAGAGGACTTGATGACGTAAGATATATGATCATCATGAGACGTTGTTCATCACCTGAAAGTGTAGCAGTAGCTTCTCTTTTTCCCCATTATTTTTTCTTCTTATTTCCTCTAGGCATATTATAGGGGTGC	no binding	
9.6	7.4	SPT–GFP (35S::SPT::GFP) (natural protein, Arabidopsis thaliana, UniProt Q9FUA4 1-373, looked up, SPATULA (SPT), Arabidopsis thaliana; in the self-association row the second copy carried RFP in place of EGFP (35S::SPT–RFP); also called SPT–EGFP; SPT–RFP (the second copy in the homodimer test); source: N. benthamiana leaves, Agrobacterium-infiltrated, in nuclei of leaf cells) MISQREEREEKKQRVMGDKKLISSSSSSSVYDTRINHHLHHPPSSSDEISQFLRHIFDRSSPLPSYYSPATTTTTASLIGVHGSGDPHADNSRSLVSHHPPSDSVLMSKRVGDFSEVLIGGGSGSAAACFGFSGGGNNNNVQGNSSGTRVSSSSVGASGNETDEYDCESEEGGEAVVDEAPSSKSGPSSRSSSKRCRAAEVHNLSEKRRRSRINEKMKALQSLIPNSNKTDKASMLDEAIEYLKQLQLQVQMLTMRNGINLHPLCLPGTTLHPLQLSQIRPPEATNDPLLNHTNQFASTSNAPEMINTVASSYALEPSIRSHFGPFPLLTSPVEMSREGGLTHPRLNIGHSNANITGEQALFDGQPDLKDRIT		5.7

Reference: publication PMC10881398, “O-glycosylation of the transcription factor SPATULA promotes style development in Arabidopsis” (Nature Plants, 2024)
